Measurements taken from doi:10.1101/2024.08.10.607320.

Experiments:
[1] = molecular target: Collagen I (triple helix of two α1 chains and one α2 chain) (UniProt P02454); experiment: SPR
[2] = molecular target: Collagen I (triple helix of two α1 chains and one α2 chain) (UniProt P02454); experiment: AFM adhesion force

Sequence of Collagen I (triple helix of two α1 chains and one α2 chain) (P02454 152-1207, chain 1 of 2): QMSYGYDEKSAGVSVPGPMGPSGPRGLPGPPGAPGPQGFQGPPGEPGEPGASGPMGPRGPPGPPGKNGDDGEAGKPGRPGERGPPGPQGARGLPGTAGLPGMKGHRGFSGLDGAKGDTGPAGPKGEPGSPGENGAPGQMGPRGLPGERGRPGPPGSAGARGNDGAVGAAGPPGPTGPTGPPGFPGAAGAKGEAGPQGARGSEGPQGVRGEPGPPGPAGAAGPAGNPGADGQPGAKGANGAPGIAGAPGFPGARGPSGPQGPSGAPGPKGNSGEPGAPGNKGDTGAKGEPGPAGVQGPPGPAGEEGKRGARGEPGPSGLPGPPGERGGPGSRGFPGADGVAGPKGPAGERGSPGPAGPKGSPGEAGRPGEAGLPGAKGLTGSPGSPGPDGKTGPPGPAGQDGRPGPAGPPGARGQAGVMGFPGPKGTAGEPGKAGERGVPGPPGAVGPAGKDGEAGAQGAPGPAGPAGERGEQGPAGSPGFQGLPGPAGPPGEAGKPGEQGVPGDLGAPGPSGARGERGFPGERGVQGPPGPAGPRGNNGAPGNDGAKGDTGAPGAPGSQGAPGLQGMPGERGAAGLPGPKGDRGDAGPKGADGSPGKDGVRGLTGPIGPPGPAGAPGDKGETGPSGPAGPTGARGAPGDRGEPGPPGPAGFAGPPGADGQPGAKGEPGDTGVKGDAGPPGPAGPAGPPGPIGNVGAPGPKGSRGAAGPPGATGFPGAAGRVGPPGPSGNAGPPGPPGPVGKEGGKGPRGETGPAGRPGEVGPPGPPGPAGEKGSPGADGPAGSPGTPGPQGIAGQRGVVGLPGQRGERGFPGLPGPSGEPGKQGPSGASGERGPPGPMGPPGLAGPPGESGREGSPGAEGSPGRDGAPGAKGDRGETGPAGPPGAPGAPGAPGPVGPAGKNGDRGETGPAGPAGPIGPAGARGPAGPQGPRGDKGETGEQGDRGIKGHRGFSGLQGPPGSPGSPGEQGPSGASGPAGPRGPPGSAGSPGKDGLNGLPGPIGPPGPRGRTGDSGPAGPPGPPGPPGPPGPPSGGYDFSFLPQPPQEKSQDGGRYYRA
Sequence of Collagen I (triple helix of two α1 chains and one α2 chain) (P02466 86-1125, chain 2 of 2, further chain): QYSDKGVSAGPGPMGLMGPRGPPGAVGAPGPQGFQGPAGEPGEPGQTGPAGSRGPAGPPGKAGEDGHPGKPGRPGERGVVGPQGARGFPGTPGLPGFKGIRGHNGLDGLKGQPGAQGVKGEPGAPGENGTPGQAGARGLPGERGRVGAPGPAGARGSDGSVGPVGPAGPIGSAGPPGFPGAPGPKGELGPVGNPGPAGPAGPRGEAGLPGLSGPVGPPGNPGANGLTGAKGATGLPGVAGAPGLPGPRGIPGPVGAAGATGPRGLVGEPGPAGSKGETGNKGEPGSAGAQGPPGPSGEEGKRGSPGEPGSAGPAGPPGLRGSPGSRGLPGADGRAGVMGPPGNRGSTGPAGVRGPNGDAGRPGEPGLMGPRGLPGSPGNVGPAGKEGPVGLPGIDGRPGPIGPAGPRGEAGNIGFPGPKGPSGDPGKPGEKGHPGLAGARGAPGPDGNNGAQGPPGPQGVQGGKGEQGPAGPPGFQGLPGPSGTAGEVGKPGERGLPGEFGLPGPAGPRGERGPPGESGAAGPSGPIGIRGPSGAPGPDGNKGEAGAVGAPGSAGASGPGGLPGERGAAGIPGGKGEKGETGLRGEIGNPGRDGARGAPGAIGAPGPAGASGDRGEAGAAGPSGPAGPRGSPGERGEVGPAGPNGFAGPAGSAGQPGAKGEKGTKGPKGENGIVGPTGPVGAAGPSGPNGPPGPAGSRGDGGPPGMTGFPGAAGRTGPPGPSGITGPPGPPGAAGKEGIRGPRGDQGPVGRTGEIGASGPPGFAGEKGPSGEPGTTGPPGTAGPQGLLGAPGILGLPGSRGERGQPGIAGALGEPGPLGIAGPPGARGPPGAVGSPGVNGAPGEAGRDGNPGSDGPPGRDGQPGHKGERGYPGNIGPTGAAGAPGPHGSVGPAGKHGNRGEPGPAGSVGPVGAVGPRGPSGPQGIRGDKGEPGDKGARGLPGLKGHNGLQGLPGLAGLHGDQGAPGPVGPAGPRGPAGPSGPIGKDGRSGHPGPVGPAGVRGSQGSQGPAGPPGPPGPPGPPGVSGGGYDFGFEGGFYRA

Kd [1]: 6.27 µM | peak force (maximum unbinding force) [2]: 3.5 nN
Substance: Amylin1-37 (human islet amyloid polypeptide), recombinant, monomer (from UniProt P10997 34-70)
